Molecular target: angiotensin-converting enzyme 2 (ACE2) on transfected HEK293T cells (human) (UniProt Q9BYF1)

S1-hFc N282Q (Fc fusion)
fold binding relative to WT S1-Fc: 3 fold

From PMC8106883
